According to patent publication US20150183883A1 (Genentech, published 2015):

T1: endothelin B receptor (ETBR) on the surface of UACC-257X2.2 melanoma cells (human, UniProt P24530 27-442)
T1 construct: Endogenous ETBR on UACC-257X2.2 melanoma cells (parental and resistant lines); also called EDNRB; EDNBR
T1 sequence: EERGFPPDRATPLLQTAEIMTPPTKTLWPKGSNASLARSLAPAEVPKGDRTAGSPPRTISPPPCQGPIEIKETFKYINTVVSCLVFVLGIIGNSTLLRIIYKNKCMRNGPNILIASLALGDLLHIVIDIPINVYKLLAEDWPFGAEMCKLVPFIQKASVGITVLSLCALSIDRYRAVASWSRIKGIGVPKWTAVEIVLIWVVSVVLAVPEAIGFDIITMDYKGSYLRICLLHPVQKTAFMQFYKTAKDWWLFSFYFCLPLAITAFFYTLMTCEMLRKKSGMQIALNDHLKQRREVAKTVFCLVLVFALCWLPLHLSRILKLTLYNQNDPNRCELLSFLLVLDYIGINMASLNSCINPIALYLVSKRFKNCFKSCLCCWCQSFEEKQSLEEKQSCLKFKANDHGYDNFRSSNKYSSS

B1: hu5E9.v1 (antibody, human IgG1, kappa, V domains shown)
VH: EVQLVESGGGLVQPGGSLRLSCAASGYTFTSYWMQWVRQAPGKGLEWIGTIYPGDGDTSYAQKFKGRATLSTDKSKNTAYLQMNSLRAEDTAVYYCARWGYAYDIDNWGQGTLVTVSS
VL: DIQMTQSPSSLSASVGDRVTITCKSSQSLLDSDGKTYLNWLQQKPGKAPKRLIYLVSKLDSGVPSRFSGSGSGTDFTLTISSLQPEDFATYYCWQGTHFPYTFGQGTKVEIKR
notes: Naked antibody used as FACS staining reagent and detected with an anti-human Alexa 488 conjugate; also called anti-ETBR antibody; humanized 5E9 version 1
B2: ch5E9 (antibody, human IgG1, kappa, V domains shown)
VH: QVQLLQSGAELARPGASVKLSCKASGYTFTSYWMQWVKQRPGQGLEWIGTIYPGDGDTSYAQKFKGKATLTTDKYSSTAYMQLSSLASEDSAVYYCARWGYAYDIDNWGQGTLVTVSS
VL: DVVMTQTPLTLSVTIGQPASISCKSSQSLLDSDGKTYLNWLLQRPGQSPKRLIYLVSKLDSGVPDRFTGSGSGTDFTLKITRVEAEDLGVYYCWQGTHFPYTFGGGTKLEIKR
notes: Naked antibody used as FACS staining reagent and detected with an anti-human Alexa 488 conjugate; also called anti-ETBR antibody; chimeric 5E9

Target: T1, endothelin B receptor (ETBR) on the …
Assay: flow cytometry (FACS) on parental and resistant UACC-257X2.2 cells
Method: Expression of ETBR on the surface of the in vivo- and in vitro-derived resistant UACC-257X2.2 cells and the parental UACC-257X2.2 cells was then determined by FACS.

Row | Binder | binding result
1 | B1 | binds
2 | B2 | binds
